Reference: the nanobody polyreactivity screen of Harvey et al. (2022)

Test: yeast display, Sf9 membrane polyspecificity reagent, FACS + sequencing; frameworks hold sequencing errors
Procedure, shortened: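 Galactose induction of a Saccharomyces cerevisiae BJ5465 synthetic nanobody display library ran 36–48 hours. The cells were then stained for 1 hour at 4 °C with 10% biotinylated, detergent-solubilized Sf9 membrane reagent, pulled down on streptavidin microbeads and FACS-sorted into low and high (top ~1%) gates on expression and reagent-binding fluorescence. Labels for polyreactivity follow the gate of origin.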

For “QVQLVESGGGLVQAGGSLRLSCSDSGRTFGGNAMGRYRQAPGKERELVAAISRSGGTTYYADSVKGRFTISRDNAKNTVYLQMNSLKPEDTAVYYCNTRRYGAMYYWGQGTQVTVSS”, which “polyreactivity (PSR sort gate)” value is on record?
The value was “high polyreactivity”.

For “QVQLVESGGGLVQAGGSLRLSCTASGSIFTRNTMGSYRQAPGKERELVAAISRRGGSTDYADSVKGRFTISRDNAKNTVYLQMNSLKPEDTAVYYCAADLGYEYDYWGQGTQVTVSS”, which “polyreactivity (PSR sort gate)” value is on record?
The value was “high polyreactivity”.

For “QVQLVESGGGLVQAGGSLRLSCVASARTFFRYAMGWYRQAPGKERELVADITRGGSTYYADSVKGRFTISRDNAKNTVYLQMNSLKPEDTAVYYCNADGRVQRKYDYWGQGTQVTVSS”, which “polyreactivity (PSR sort gate)” value is on record?
The value was “high polyreactivity”.

Which “polyreactivity (PSR sort gate)” value does the source give for “QVQLVESGGGLVQAGGSLRLSCVASGGIFFHYAMRWYRHARGKERELVAAISISGGSTYSADSVKGRFTISRDNAKNTVYLQMNSLKPEDTAVYYCAARYWVRRKDYWGQGTQVTVSS” here?
The value was “low polyreactivity”.

Which “polyreactivity (PSR sort gate)” value does the source give for “QVQLVESGGGLVQAGGSLRLSCVASGRIIPCNAMGWYRQAPGKERELVAAISYGGGSTYYADSVKGRFTISRDNAKNTVYLQMNSLKPADTAVYYCAAASSGEYGYWGQGTQVTVSS” here?
The value was “low polyreactivity”.

Which “polyreactivity (PSR sort gate)” value does the source give for “QVQLVESGGGLVQAGGSLRLSCVPPDLPSTLNVMGWYRQAPGKERELVAAISQRGGSTYYADSVKGRFTISRDNAKNTVYLEMNSLKPEDTAVYYCAAGPGDSGDDYWGQGTQVTVSS” here?
Its value is “low polyreactivity”.

Which “polyreactivity (PSR sort gate)” value does the source give for “QVQLVESGGGLVQAGGSLRLSCYASGGTFRWYAMGWSRQAPGKERELVAAISYSGGPTYADSVKGRFTISRDNAKNTVYLQMNSLKPEDTAVYYCNAVRYITHYDYWGQGTQVTVSS” here?
The value was “high polyreactivity”.

For “QVQLVESGGGLVQAGGSLRLSCYASGRTFAGYVMGWYRQAHGKERELVAAINASGGSTYYADSVKGRFTISRDNAKNTVYLQMNSLKPEDTAVYYCAAARLGSDITRRYYYWGQGTQVTVSS”, which “polyreactivity (PSR sort gate)” value is on record?
The value was “high polyreactivity”.

Which “polyreactivity (PSR sort gate)” value does the source give for “QVQLVESGGGLVQAGGSLRLSFAASGFTFRYYVMGWYRQAPGKERELVASISRGGSTTNYADSVKGRFTISRDNAKNTVFLQMNSLKPEDTAVYDCNVVITPGYSYDISRGEGYWGQGTQVTVSS” here?
Its value is “high polyreactivity”.

For “QVQLVESGGGLVQAGGSLRLSFAASGHTFRYYAMGWYRQAPGKERELVAAITGGGGSTYYADSVKGRFTISRDNAKNTVYFQMNSLKPEDTAVYYCATGGVSGMVGGDYWGQGTQVTVSS”, which “polyreactivity (PSR sort gate)” value is on record?
The value was “low polyreactivity”.

For “QVQLVESGGGLVQAGGSLRLSFAASGITFSSYAMGLYRQAPGKERELVARISTDADTYYADSVKGRFTISRDNAKNTVYLQMNSLKPEDTAVYYCAAEDYWDFDYWGQGTQVTVSS”, which “polyreactivity (PSR sort gate)” value is on record?
Its value is “low polyreactivity”.

With “QVQLVESGGGLVQAGGSLRLSFAASGLNFRVYAMGWYTQAPGTERELVAAISRGGSTYYADSVKGRFTISRDNAKNTVYLQMNSLKPEDTAVYYCAAVFVHRGYYYWGQGTQVTVSS” as the sequence, how does the “polyreactivity (PSR sort gate)” value read?
Its value is “high polyreactivity”.

For “QVQLVESGGGLVQAGGSLRLSFAASGNTFVSNAMGWYRQAPGKERELVAAISGRGGRTYYADSVKGRFTISRDIAKDTVYLQMNSLKPEDTAVYYCDADQYKDFDYWGQGTLVTVSS”, which “polyreactivity (PSR sort gate)” value is on record?
The value was “low polyreactivity”.

Which “polyreactivity (PSR sort gate)” value does the source give for “QVQLVESGGGLVQAGGSLRLSFAASGRIFGENAMGWYRQAPGKEREFVAVISISDASTYYADSVKGRFTLSRDNAKNTVYLQMNSLKPEDTAVYYWAADLTDFLYVASDYWGQGTQVTVSS” here?
Its value is “low polyreactivity”.

For “QVQLVESGGGLVQAGGSLRLSFAASGRIFGGYGMGWYRQAPGKERELVAAIDADAGSTYYADSVKGRFTISRDNAKNTVYLQLNSLKPEDTAVYYCAPVDQVAVDKHDYWGQGTQVTVSS”, which “polyreactivity (PSR sort gate)” value is on record?
The value was “low polyreactivity”.

Which “polyreactivity (PSR sort gate)” value does the source give for “QVQLVESGGGLVQAGGSLRLSFAASGRIFVRYSMGWYRQAPGKERELVAAISSSGSSTYYADSVKGRFTISRDNAQNTFYLKMNCLKPEDTAVYYCAAASVRYPRYEYWGQGTQVTVSS” here?
Its value is “high polyreactivity”.

With “QVQLVESGGGLVQAGGSLRLSFAASGRIFYQYAMGWYRQAPGKERELVAAINSYGGRTYYADSVKGRFTISRDNAKYTVYLQMNSLKPEDTAVYYCAKLRVPYYAEYGYWGQGTQVTVSS” as the sequence, how does the “polyreactivity (PSR sort gate)” value read?
The value was “high polyreactivity”.

Which “polyreactivity (PSR sort gate)” value does the source give for “QVQLVESGGGLVQAGGSLRLSFAASGRTFYSYAMGWYRQAPGKETQLVASITSTGSTYYADSVKGRFTISRDNAKNTVYLQMNSLKPEDTAVYYCAARRQPRYSQRSTYYYWGQGTQVTVSS” here?
The value was “high polyreactivity”.

With “QVQLVESGGGLVQAGGSLRLSFAASGSIFNYNAMGWYRQAPGKERELVAAITYADSVKGRFTISRDNAKNTVYLQMNSLKPEDTAVYHCNTHYVPSFRFDYWGQGTQVTVSS” as the sequence, how does the “polyreactivity (PSR sort gate)” value read?
Its value is “low polyreactivity”.

For “QVQLVESGGGLVQAGGSLRLSFAASGSIFVGYAMGLYRQAPGKERELVAAISWSGDSTYYADSVKGRFTISRDNAKNTVYLQMYSLKPEDTAVPYCAVDPQQVRTLDYYVGYDYWGQGTQVTVSS”, which “polyreactivity (PSR sort gate)” value is on record?
Its value is “low polyreactivity”.

For “QVQLVESGGGLVQAGGSLRLSFAASGSTFSEYALGLYRQAPGKERELVAAITSSSGSTYYADSVKGRFTISRVNAKNTVYLQMNSLKPEDTAVYYCNAYYRTVYYDWGDYEYWGEGTQVTVSS”, which “polyreactivity (PSR sort gate)” value is on record?
The value was “high polyreactivity”.

With “QVQLVESGGGLVQAGGSLRLSFAASGSTFSSNAMGWYRQAPGKERELVAAISVNGGSTNYADSVKGRFTISRDNAKNTVYLQMNSLKPEDTAVYYCDAEPDKVAFYRGDYWGQGTQVTVSS” as the sequence, how does the “polyreactivity (PSR sort gate)” value read?
The value was “low polyreactivity”.

For “QVQLVESGGGLVQAGGSLRLSFAASGSTFVIYAMGWYRQAPGTERELVAAISGRTGSTYYADSVKGRFTISRDNAKNTVYLQMNSLKPEDTAVYYCAAYKRSGLKYGHWGQGTQVTVSS”, which “polyreactivity (PSR sort gate)” value is on record?
The value was “high polyreactivity”.

For “QVQLVESGGGLVQAGGSLRLSFAASGSTFVYNAMGWYRPAPGKERELVAAITVIGGRTYYADSVKGRFTISRDNAKNTVYLQMNSLKPEDTAVYYCNADATESIGYYDEYEYWGQGTQVTVSS”, which “polyreactivity (PSR sort gate)” value is on record?
The value was “low polyreactivity”.

For “QVQLVESGGGLVQAGGSLRLSFAASGYIFYYNAMGWYRQAPGKERELVAAISRGGNTYYADSVKGRFTISRDNAKNTVYLQMNSLKPEDNAVYYFNARPPNKRYKYGYWGQGTQVTVSS”, which “polyreactivity (PSR sort gate)” value is on record?
Its value is “high polyreactivity”.

With “QVQLVESGGGLVQAGGSLRLSFASSGSTFYYNAMGWYRQAPGKERDLVARISRSGGSTYADSVKGRFTISRDNAKNTVYFQMNSLKPEDTAVSYCNADAYGTPEFTSYAVRYDYGGQGTQVTVSS” as the sequence, how does the “polyreactivity (PSR sort gate)” value read?
Its value is “low polyreactivity”.

Which “polyreactivity (PSR sort gate)” value does the source give for “QVQLVESGGGLVQAGGSLRLSGAASGFIFDQNAMGGYRQPPGKVRELVAAISKRGGSTYYADSVKGRFTISRDNAMNTVYLQMNSLKPEDTAVYYCARPRRSVNFYKYIYNYWGQGTLVTVSS” here?
Its value is “high polyreactivity”.

With “QVQLVESGGGLVQAGGSLRLSGAASGFNLEPNAMGWYRQAPGKERELVATISFSGGGTYYADSVKGRFTISRDNAKNTVYLQMNSLKPEDTAVYYCAADWYYYVWWYDYWGQGTQVTVSS” as the sequence, how does the “polyreactivity (PSR sort gate)” value read?
Its value is “high polyreactivity”.

With “QVQLVESGGGLVQAGGSLRLSGAASGFTFGRNAMGGYRQAPGKEREFVAAISKSATSKYYADSVKGRFTISRDNAKNTVYLQMNSLKPEDTSVYYCARTNYAKRWDFDYWGQGTQVTVSS” as the sequence, how does the “polyreactivity (PSR sort gate)” value read?
Its value is “low polyreactivity”.

With “QVQLVESGGGLVQAGGSLRLSGAASGRTFGVYVMGWYRQAPGKERELVAAIDDSGGSTYYADSVKGRFTISRDNAKNTVYLQMNSLKPEDTAVYYCAADFYVVYWGTYSVGYDYWGQGTQVTVSS” as the sequence, how does the “polyreactivity (PSR sort gate)” value read?
Its value is “low polyreactivity”.

For “QVQLVESGGGLVQAGGSLRLSGAASGSIFYSNAMGWSRQAPGKERELVAAITVRGGSTYYADSVKGRFTISRDNAKNTVYLQMNSLKQEDTAVYYCAAEYVSYSSYIYGYLGQGTQVTVSS”, which “polyreactivity (PSR sort gate)” value is on record?
Its value is “high polyreactivity”.

For “QVQLVESGGGLVQAGGSLRLSGAASGSTFRRNAMGWSRQAPGKERELVAAISRRGGRTYYADSVKGRFTISRDNAKNTVYLQLNSLKPEDTAVYYCAADVIYSGDYWGQGTQVTVSS”, which “polyreactivity (PSR sort gate)” value is on record?
The value was “high polyreactivity”.

Which “polyreactivity (PSR sort gate)” value does the source give for “QVQLVESGGGLVQAGGSLRLSGAASGSTFVIYAMGWSRQAPGKERELVAAIRLGGGSTYYADSVKGRFTISRDNAKNTVYLQMNSLKPEDTEVYYCAAEVDQWYYRGYVYWGQGTQVTVSS” here?
Its value is “high polyreactivity”.

Which “polyreactivity (PSR sort gate)” value does the source give for “QVQLVESGGGLVQAGGSLRLSGDASGSIFVWYDMGWYRQAPGKERELVATISLSGVSTYYADSVKGRFTISRDNAKKTVYLQMNSLKPEDNAVYYCAADFVEQGEDDYCGQGTQVTVSS” here?
Its value is “low polyreactivity”.

Which “polyreactivity (PSR sort gate)” value does the source give for “QVQLVESGGGLVQAGGSLRLSLAASGRTFEYYAMGWYRQAPGKERELVAAITSGGITYYADSVKGRFTISRDNAKNTVYLQMNSLKPEDTAVYYCNDRHRYYRYGYWGQGSQVTVSS” here?
Its value is “high polyreactivity”.

Which “polyreactivity (PSR sort gate)” value does the source give for “QVQLVESGGGLVQAGGSLRLSLLPPDSPSTTMLWDGIDRRLGKKGSWLPVFLPSGGTTYADSVKGRFTISRDNAKNTVYLQMNSLKPEDTAVYYCAASYYRTRWSWMYYWGQGTQVTVSS” here?
The value was “low polyreactivity”.

Which “polyreactivity (PSR sort gate)” value does the source give for “QVQLVESGGGLVQAGGSLRLSRAASGVIIYRYAMGWYRQAPGKERELVAAISRSGGSTYYADSVKGRFTISRDNAMNTVYLQMNCLKPEDTAVYYCAADRGSLAPGNDYWGQGTQVTVSS” here?
Its value is “high polyreactivity”.

For “QVQLVESGGGLVQAGGSLRLSRAATGSIIASYAMGWYRQAPGKERELVSAISARGGSTYYADSVKGRFTISRDNAKNTVYLQMNSLKPEDTAVYSCAARHQQGRRISDYGYWGQGTQVTVSS”, which “polyreactivity (PSR sort gate)” value is on record?
Its value is “high polyreactivity”.

Which “polyreactivity (PSR sort gate)” value does the source give for “QVQLVESGGGLVQAGGSLRLSRPASGFTYIYSVMGWYRQAPGKERELVAAINGRGDRKYYADSVKGRFTISRDNAKNTGYLQMNSLKPEDTAVYYCNARTHTWGYSAKFDYWGQGTQVTVSS” here?
The value was “high polyreactivity”.

Which “polyreactivity (PSR sort gate)” value does the source give for “QVQLVESGGGLVQAGGSLRLSSAASGFIFAIYSMGWYRQAPGKERELVAAISRSGGRTYYADSVKGRFTISRDIAKNTVYLQMISLKPEDTAVYYCNARFQYRGVKYYYWGKGTQVTVSS” here?
Its value is “high polyreactivity”.

Which “polyreactivity (PSR sort gate)” value does the source give for “QVQLVESGGGLVQAGGSLRLSSAASGFILEPNAMGWYRQAPGKERELVAAITTSGGTYYADSVKGRFTISRDNAKNTVYLQMNSLKPEDTAVYYCNAVSTDSWAYHGDYWGQGTQVTVSS” here?
The value was “low polyreactivity”.

Which “polyreactivity (PSR sort gate)” value does the source give for “QVQLVESGGGLVQAGGSLRLSSAASGFILRTNAMGWYRQAPGKERELVAAISVSGGRTYYADSVKGRFTISRDNAKNTVYLQMNSLKPEDTAVDYCAARDSTKLLSGYTHYYWGQGTQVTVSS” here?
The value was “high polyreactivity”.

For “QVQLVESGGGLVQAGGSLRLSSAASGFIYRGNVMGWYRQAPGKERELVAAITWSGGSTYYADSVKGRFTISRDNAKNTVYLQMNSLKPDDTAVYYCNADLYIYEWYPALHSNDYWGQGSQVTVSS”, which “polyreactivity (PSR sort gate)” value is on record?
Its value is “low polyreactivity”.
